Measurements reported in the supplement of paper PMC7125110.
± gives the standard error. For part of these data: Variants at the floor of the assay were thinned out.

B1: glmS ribozyme (parent)
chain: AUAAAAGCGCCAGAACUACAGAAAUGUAGUUGACGAGGAGGAGGUUUAUCGAAUUUUCGGCGGAUGCCUCCAAA

What was measured:
Settings in all cases: with glucosamine-6-phosphate
glucosamine-6-phosphate [1] = variants of: B1; assay: kcat; higher = faster cleavage; RNA array
How it was run: (§1)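 Barcoded ribozyme variants, transcribed in situ by E. coli RNA polymerase on sequenced MiSeq chips, were followed via a hybridised Cy3 probe at 37 °C. Glucosamine-6-phosphate ranged from 40 μM to 10 mM in HEPES/KCl/Mg(OAc)2 buffer. kobs came from decay fits to per-tile medians, and kcat and KM from weighted Michaelis–Menten fits.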

glucosamine-6-phosphate [2] = variants of: B1; assay: KM; higher = weaker cofactor use; RNA array
How it was run: as §1

glucosamine-6-phosphate [3] = variants of: B1; assay: self-cleavage kobs at 40 uM GlcN6P; higher = faster cleavage; RNA array
How it was run: as §1

glucosamine-6-phosphate [4] = variants of: B1; assay: self-cleavage kobs at 640 uM GlcN6P; higher = faster cleavage; RNA array
How it was run: as §1

glucosamine-6-phosphate [5] = variants of: B1; assay: self-cleavage kobs at 10000 uM GlcN6P; higher = faster cleavage; RNA array
How it was run: as §1

glucosamine-6-phosphate [6] = variants of: B1; assay: self-cleavage kobs at 2500 uM GlcN6P; higher = faster cleavage; RNA array
How it was run: as §1

glucosamine-6-phosphate [7] = variants of: B1; assay: self-cleavage kobs at 160 uM GlcN6P; higher = faster cleavage; RNA array
How it was run: as §1

| Variant | kcat (glucosamine-6-phosphate [1]) | KM (glucosamine-6-phosphate [2]) | self-cleavage kobs at 40 uM GlcN6P (glucosamine-6-phosphate [3]) | self-cleavage kobs at 640 uM GlcN6P (glucosamine-6-phosphate [4]) | self-cleavage kobs at 10000 uM GlcN6P (glucosamine-6-phosphate [5]) | self-cleavage kobs at 2500 uM GlcN6P (glucosamine-6-phosphate [6]) | self-cleavage kobs at 160 uM GlcN6P (glucosamine-6-phosphate [7]) |
| --- | --- | --- | --- | --- | --- | --- | --- |
| U45C U65A C67G | 0.00116 ± 0.00022 s⁻¹ | 1660 ± 630 µM | 3.4e-05 ± 1.6e-05 s⁻¹ | 0.000279 ± 0.0001 s⁻¹ | 0.000996 ± 0.00022 s⁻¹ | – | – |
| U46C C50U | 1.22e-05 ± 2e-06 s⁻¹ | – | < 1e-05 s⁻¹ | – | – | – | – |
| U46A U56C | 0.0005 ± 4.2e-05 s⁻¹ | 1350 ± 250 µM | – | 0.000158 ± 3.2e-05 s⁻¹ | 0.000424 ± 8.3e-05 s⁻¹ | 0.000362 ± 8.4e-05 s⁻¹ | – |
| G44A U65A | 0.000154 ± 9.6e-06 s⁻¹ | 828 ± 240 µM | – | 6.51e-05 ± 2.8e-05 s⁻¹ | 0.000139 ± 2e-05 s⁻¹ | 0.000133 ± 3.6e-05 s⁻¹ | – |
| G41C U45A | 0.000121 ± 5.5e-06 s⁻¹ | 1240 ± 160 µM | – | 4.19e-05 ± 7.6e-06 s⁻¹ | 0.000108 ± 1.1e-05 s⁻¹ | – | – |
| A42G A48U | 0.00077 ± 0.00015 s⁻¹ | 3220 ± 1100 µM | – | 0.000148 ± 4.3e-05 s⁻¹ | 0.000576 ± 0.00013 s⁻¹ | – | – |
| A42G A48G | 9.11e-05 ± 9e-06 s⁻¹ | – | – | – | 3.86e-05 ± 1.7e-05 s⁻¹ | – | – |
| G44U A53G | 0.000308 ± 2.1e-05 s⁻¹ | 997 ± 240 µM | – | – | 0.00028 ± 3.8e-05 s⁻¹ | 0.000223 ± 6e-05 s⁻¹ | 3.95e-05 ± 1.8e-05 s⁻¹ |
| U46A C68A | 1.9e-05 ± 7.6e-06 s⁻¹ | – | < 1e-05 s⁻¹ | – | – | – | – |
| A42C C70U | 1.24e-05 ± 3.3e-06 s⁻¹ | – | – | – | – | – | – |
| A42C C70G | 4.99e-05 ± 4.3e-06 s⁻¹ | 1410 ± 550 µM | – | – | 4.32e-05 ± 6.7e-06 s⁻¹ | 3.37e-05 ± 7.9e-06 s⁻¹ | – |
| G44C C67U | 0.00192 ± 0.00015 s⁻¹ | 1700 ± 200 µM | 5.1e-05 ± 1.3e-05 s⁻¹ | 0.000532 ± 0.00011 s⁻¹ | 0.00168 ± 0.0003 s⁻¹ | 0.00109 ± 0.00024 s⁻¹ | 0.000153 ± 3.2e-05 s⁻¹ |
| G44U U57G | < 1e-05 s⁻¹ | – | < 1e-05 s⁻¹ | – | < 1e-05 s⁻¹ | < 1e-05 s⁻¹ | < 1e-05 s⁻¹ |
| U45A A64G | 0.0186 ± 0.0054 s⁻¹ | 600 ± 260 µM | 0.000998 ± 0.00025 s⁻¹ | 0.0143 ± 0.0033 s⁻¹ | 0.015 ± 0.004 s⁻¹ | – | 0.00526 ± 0.0021 s⁻¹ |
| U46A C71U | 0.00396 ± 0.00074 s⁻¹ | 2020 ± 580 µM | 8.79e-05 ± 1.3e-05 s⁻¹ | 0.000874 ± 0.00015 s⁻¹ | 0.00319 ± 0.00037 s⁻¹ | 0.00353 ± 0.00069 s⁻¹ | 0.000232 ± 6.3e-05 s⁻¹ |
| A42C U49G | 1.03e-05 ± 3.2e-07 s⁻¹ | 512 ± 51 µM | – | – | – | – | – |

| Variant | kcat (glucosamine-6-phosphate [1]) | KM (glucosamine-6-phosphate [2]) | self-cleavage kobs at 40 uM GlcN6P (glucosamine-6-phosphate [3]) | self-cleavage kobs at 640 uM GlcN6P (glucosamine-6-phosphate [4]) | self-cleavage kobs at 10000 uM GlcN6P (glucosamine-6-phosphate [5]) | self-cleavage kobs at 2500 uM GlcN6P (glucosamine-6-phosphate [6]) | self-cleavage kobs at 160 uM GlcN6P (glucosamine-6-phosphate [7]) |
| --- | --- | --- | --- | --- | --- | --- | --- |
| A42U U55C | 0.000267 ± 2.5e-05 s⁻¹ | 1350 ± 250 µM | – | 8.56e-05 ± 9.8e-06 s⁻¹ | 0.000223 ± 3e-05 s⁻¹ | 0.000198 ± 3e-05 s⁻¹ | – |
| U45C U54C | 0.00224 ± 0.00051 s⁻¹ | 2240 ± 770 µM | – | 0.00057 ± 0.00012 s⁻¹ | 0.00213 ± 0.00063 s⁻¹ | 0.00105 ± 0.00023 s⁻¹ | 0.000142 ± 3.9e-05 s⁻¹ |
| G44C A52G | < 1e-05 s⁻¹ | 279 ± 110 µM | < 1e-05 s⁻¹ | < 1e-05 s⁻¹ | – | – | < 1e-05 s⁻¹ |
| U45G C71A | 0.000924 ± 0.00018 s⁻¹ | 1750 ± 590 µM | 3.27e-05 ± 1.3e-05 s⁻¹ | 0.000204 ± 3.8e-05 s⁻¹ | 0.000766 ± 0.0001 s⁻¹ | 0.000778 ± 0.00016 s⁻¹ | 8.6e-05 ± 1.7e-05 s⁻¹ |
| G41C A53G | 0.000359 ± 9.5e-05 s⁻¹ | – | – | 0.000157 ± 3.2e-05 s⁻¹ | 0.000438 ± 7.1e-05 s⁻¹ | 0.000193 ± 4.2e-05 s⁻¹ | 5.35e-05 ± 1.4e-05 s⁻¹ |
| A42G U47C | 0.00858 ± 0.0022 s⁻¹ | 6280 ± 2000 µM | 6.46e-05 ± 2.1e-05 s⁻¹ | 0.00074 ± 0.00014 s⁻¹ | 0.00583 ± 0.0016 s⁻¹ | 0.00232 ± 0.00039 s⁻¹ | 0.000257 ± 7.7e-05 s⁻¹ |
| U46C C68G | 5.04e-05 ± 2e-06 s⁻¹ | 811 ± 200 µM | – | – | 4.62e-05 ± 1.3e-05 s⁻¹ | – | – |
| U46C C68U | 0.000934 ± 0.0002 s⁻¹ | 1480 ± 580 µM | 2.43e-05 ± 7.6e-06 s⁻¹ | 0.000387 ± 6e-05 s⁻¹ | 0.000743 ± 7.7e-05 s⁻¹ | 0.000933 ± 0.00014 s⁻¹ | 7.49e-05 ± 1.3e-05 s⁻¹ |
| A42C U69C | 0.000251 ± 7e-05 s⁻¹ | – | – | 0.000126 ± 2.7e-05 s⁻¹ | 0.000346 ± 0.00013 s⁻¹ | 0.000165 ± 6.2e-05 s⁻¹ | – |
| U45C A53U | 0.0028 ± 0.0008 s⁻¹ | 4320 ± 1700 µM | 4.26e-05 ± 1.2e-05 s⁻¹ | 0.00031 ± 5e-05 s⁻¹ | 0.00199 ± 0.00035 s⁻¹ | 0.00109 ± 0.00022 s⁻¹ | 0.000117 ± 2.5e-05 s⁻¹ |
| A42C C67A | 0.000122 ± 1.6e-05 s⁻¹ | 1160 ± 560 µM | – | 5.06e-05 ± 1.6e-05 s⁻¹ | 0.000114 ± 1.7e-05 s⁻¹ | 5.66e-05 ± 2.8e-05 s⁻¹ | – |
| G41A U55G | 0.000144 ± 2.3e-05 s⁻¹ | – | – | 0.000142 ± 3.9e-05 s⁻¹ | 0.000179 ± 2.9e-05 s⁻¹ | 0.000107 ± 1.9e-05 s⁻¹ | 5.67e-05 ± 1.5e-05 s⁻¹ |
| U45G A53G | 0.0084 ± 0.0028 s⁻¹ | 2020 ± 990 µM | 0.000258 ± 4.3e-05 s⁻¹ | 0.00204 ± 0.00042 s⁻¹ | 0.00681 ± 0.0011 s⁻¹ | 0.00535 ± 0.0012 s⁻¹ | 0.000367 ± 0.00012 s⁻¹ |
| U46C C70G | 0.000447 ± 0.00013 s⁻¹ | – | 6.28e-05 ± 2.3e-05 s⁻¹ | 0.000178 ± 2.9e-05 s⁻¹ | 0.000346 ± 5.5e-05 s⁻¹ | 0.000453 ± 6.5e-05 s⁻¹ | 3.81e-05 ± 1.5e-05 s⁻¹ |
| G44C | 0.0002 ± 2.4e-05 s⁻¹ | 1980 ± 570 µM | – | 4.33e-05 ± 1.8e-06 s⁻¹ | 0.000159 ± 3.5e-06 s⁻¹ | 0.000127 ± 2.9e-06 s⁻¹ | – |
